# Marks after values point to notes of the source that are not given here.
# Tests used:
# Assay type in all cases: biochemical
# [1] = Propane hydroxylation (rate, total turnover, products)
# Procedure: (§1) Cell lysates for high throughput screening were prepared as described previously (Peters et al., J. Am. Chem. Soc. 125:13442 (2003); incorporated by reference herein). High-throughput dimethyl ether (DME) screens were performed in 96 well plates as described previously. Improved mutants were selected based on an increased signal compared to 9-10A (for the saturation mutagenesis libraries) and 1-12G (for the recombination library). Reactions on octane and propane were analyzed by gas chromatography as described.
# (§2) Rates of ethanol formation were measured over 30 min using gas chromatography (GC) coupled to an electron capture detector (ECD) and are reported as nmol ethanol/min/nmol enzyme. Errors are at most 10%. Total turnover number (ttn) was measured using GC after completion of the reaction and is reported as nmol product/nmol protein. Errors are at most 10%. Initial rates of propanol and octanol formation were measured over 1 min by GC and are reported as nmol product/min/nmol protein. Errors are at most 15%. The “ee” of 2-octanol (main product) was measured by GC; the favored enantiomer is listed in parenthesis. Wild-type P450 BM-3 primarily produces 3- and 4-octanol. The yields were not sufficient for the determination of ee for wt BM-3. Mutant 9-10A contains amino acid substitutions R47C, V78A K94I, P142S, T175I, A184V, F205C, S226R, H236Q, E252G, R255S, A290V, and L353V.
# (§3) In Table 5 the product distribution is determined as ratio of a specific alcohol product to the total amount of all alcohol products (given in %). The product distribution for ketones was similar to alcohol product distribution. The numbers reported here are the (%) total of all ketones relative to total products (alcohols+ketones). The favored enantiomer is listed in parentheses.
# (§4) For the data shown in Table 6 the initial NADPH consumption rates were measured over 15 seconds at 340 nm as nmol NADPH/min/nmol protein. Octane reactions contained 100 nM P450, 166 uM NADPH, and 4 mM octane in 1% ethanol and potassium phosphate buffer. […] Errors are at most 10%. Initial rates were measured by GC over 1 minute as nmol total products/min/nmol protein. Octane reactions contained 100 nM P450, 500 uM NADPH, and 4 mM octane in 1% ethanol and potassium phosphate buffer. Propane reactions contained 1 uM P450, 500 uM NADPH, and propane-saturated potassium phosphate buffer. Coupling was determined by ratio of product formation rate to NADPH consumption rate. Total turnover numbers were determined as nmol product/nmol enzyme. Octane reactions contained 10-25 nM P450, 500 uM NADPH, and 4 mM octane in 1% ethanol and potassium phosphate buffer. Propane reactions contained 10-25 nM protein, potassium phosphate buffer saturated with propane, and an NADPH regeneration system containing 100 uM NADP+, 2 U/mL isocitrate dehydrogenase, and 10 mM isocitrate.
# [2] = Octane hydroxylation (rate, ttn, regio- and enantioselectivity)
# Procedure: as §1, §2, §3, §4
# Twenty-one single active site mutants with increased activity towards either of these substrates were isolated. Mutations that improved the activity were found at amino acid positions L75 (I, W), A78 (T, F, S), A82 (T, S, F, I, C, G, L), F87 (I, V, L), T88 (C), T260 (N, L, S) and A328 (L, F, M). The single active site mutants of 9-10A were characterized by their altered regioselectivity towards octane. Each of these mutations produces a characteristic octanol product distribution as a result of their presence altering the active site geometry above the heme cofactor. Transformations were carried out using cell lysates. The mutations were generated in variant 9-10A (with amino acid mutations R47C, V78A, K94I, P142S, T175I, A184V, F205C, S226R, H236Q, E252G, R255S, A290V, L353V). “Others” indicates over oxidation products (ketones and aldehydes) with a similar product distribution as the alcohols. “Rate” was measured as nmol octanol/nmol P450/minute. “TTN” was measured as nmol octanol/nmol P450 produced in 4 hour reaction.
# Mutations are relative to variant 9-10A (described above). Wild-type has a valine at position 78. […]
# [3] = High-throughput dimethyl ether (DME) screen; conditions: relative to 35-E11; normalized to P450 concentration
# Procedure: as §1
# Libraries of mutants of 35-E11 were screened for phenotypes indicative of either increased product formation on small gaseous substrates slightly larger than methane. Additionally, they were screened for increased coupling of the consumption of NADPH reducing equivalents to product formation. Product formation was determined by measuring total amount of dimethyl ether hydroxylation while increased coupling was determined primarily by decreased background NADPH consumption rates (measured spectrophotometrically at 340 nm in the absence of substrate).
# The relative dimethyl ether (DME) activity was measured, 1 hour after treatment with Purpald, as the average net and absorbance at 550 nm from 8 microtitre plate DME reactions of the mutant compared to 8 equivalent reactions of 35-E11. All values were normalized by measuring the P450 concentration in each well with CO binding. “Asteriks” indicate criteria used to select mutants from libraries for further characterization. The oxidation rate is measured as absorbance change at 340 nm over 1 minute upon the addition of NADPH to 8 microtitre plate wells containing P450-containing cell lysate and compared to 8 equivalent reactions of 35-E11. All values were normalized by measuring the P450 concentration in each well with CO binding. The total turnover number (TTN) was measured as the absorbance at 550 nm of methane reactions with each mutant after treatment with alcohol oxidase and
# Screening libraries by spectroscopically monitoring NADPH consumption rates in the presence of the alkane often selects for mutants with NADPH oxidation rates highly uncoupled to product formation. This can be overcome through the use of surrogate substrates that mimic desired substrates, yet yield species when hydroxylated that are easily detected either directly or with the addition of a dye. For example, the screen for the high-throughput identification of mutant BM-3 enzymes with activity towards propane as described previously uses dimethyl ether (DME) as a propane surrogate substrate. Upon hydroxylation, it decomposes into methanol and dye-sensitive formaldehyde. In addition, hexyl methyl ether (HME) may be used as a surrogate for octane. It shares most of the physical properties of octane, including solubility in buffer, size, shape, and strength of its C—H bonds. When HME is hydroxylated at its methoxy carbon, it also produces an equivalent of formaldehyde which is visually detected at concentrations as low as 10 μM with the dye Purpald (see FIG. 25). Hexanal, the aldehyde product formed when the α-carbon of the hexyl group is hydroxylated, is practically unreactive towards Purpald at some concentrations used in the present screens. Formaldehyde is approximately 42 times more sensitive to Purpald than hexanal (see FIG. 26). This disproportionate response makes HME, in contrast to the symmetric ether DME, a regio-selective screen for terminal alkane hydroxylation.
# High-throughput screening. Single colonies were picked and inoculated by a Qpix robot (Genetix, Beaverton, OR) into 1-mL, deep-well plates containing LB (Amp*) medium (400 μL). The plates were incubated at 30° C., 250 rpm, and 80% relative humidity. After 24 h, 50 μL from this pre-culture were used to inoculate a 2-mL, deep-well plates containing […] TB (Amp^+) medium per well. Cultures were grown at 37° C., 220 rpm, and 80% relative humidity. […]
Molecule,activity on propane ([1]; listed as P450BM3),activity on propane ([1]; listed as wild-type P450BM3),activity on propane ([1]; listed as wildtype cytochrome P450 BM-3),rate of octane hydroxylation [2],Octane ttn ([2]; 1% ethanol),"Octane Rate ([2]; initial rate of octanol formation over 1 min, 1% ethanol)",Octane % 2-octanol ([2]; regioselectivity),Relative DME activity in screen [3]
"Wild-type BM-3: wild-type cytochrome P450 BM-3 from Bacillus megaterium, SEQ ID NO:1 (protein, listed as Bacillus megaterium) TIKEMPQPKTFGELKNLPLLNTDKPVQALMKIADELGEIFKFEAPGRVTRYLSSQRLIKEACDESRFDKNLSQALKFVRDFAGDGLFTSWTHEKNWKKAHNILLPSFSQQAMKGYHAMMVDIAVQLVQKWERLNADEHIEVPEDMTRLTLDTIGLCGFNYRFNSFYRDQPHPFITSMVRALDEAMNKLQRANPDDPAYDENKRQFQEDIKVMNDLVDKIIADRKASGEQSDDLLTHMLNGKDPETGEPLDDENIRYQIITFLIAGHETTSGLLSFALYFLVKNPHVLQKAAEEAARVLVDPVPSYKQVKQLKYVGMVLNEALRLWPTAPAFSLYAKEDTVLGGEYPLEKGDELMVLIPQLHRDKTIWGDDVEEFRPERFENPSAIPQHAFKPFGNGQRACIGQQFALHEATLVLGMMLKHFDFEDHTNYELDIKETLTLKPEGFVVKAKSKKIPLGGIPSPSTEQSAKKVRKKAENAHNTPLLVLYGSNMGTAEGTARDLADIAMSKGFAPQVATLDSHAGNLPREGAVLIVTASYNGHPPDNAKQFVDWLDQASADEVKGVRYSVFGCGDKNWATTYQKVPAFIDETLAAKGAENIADRGEADASDDFEGTYEEWREHMWSDVAAYFNLDIENSEDNKSTLSLQFVDSAADMPLAKMHGAFSTNVVASKELQQPGSARSTRHLEIELPKEASYQEGDHLGVIPRNYEGIVNRVTARFGLDASQQIRLEAEEEKLAHLPLAKTVSVEELLQYVELQDPVTRTQLRAMAAKTVCPPHKVELEALLEKQAYKEQVLAKRLTMLELLEKYPACEMKFSEFIALLPSIRPRYYSISSSPRVDEKQASITVSVVSGEAWSGYGEYKGIASNYLAELQEGDTITCFISTPQSEFTLPKDPETPLIMVGPGTGVAPFRGFVQARKQLKEQGQSLGEAHLYFGCRSPHEDYLYQEELENAQSEGIITLHTAFSRMPNQPKTYVQHVMEQDGKKLIELLDQGAHFYICGDGSQMAPAVEATLMKSYADVHQVSEADARLWLQQLEEKGRYAKDVWAG",no measurable activity,no detectable propane activity,inactive,30 min⁻¹,150 nmol product/nmol protein,30 nmol product/min/nmol protein,17%,
"20-D3: P450 BM-3 variant, SEQ ID NO:11; 35-E11 plus H285R (protein, mutant P450 20-D3 protein sequence, 35-E11 plus H285R) TIKEMPQPKTFGELKNLPLLNTDKPVQALMKIADELGEIFKFEAPGCVTRYLSSQRLIKEACDESRFDKNLSQALKFFRDFSGDGLFTSWTHEINWKKAHNILLPSFSQQAMKGYHAMMVDIAVQLVQKWERLNADEHIEVSEDMTRLTLDTIGLCGFNYRFNSFYRDQPHPFIISMVRALDEVMNKLQRANPDDPAYDENKRQCQEDIKVMNDLVDKIIADRKARGEQSDDLLTQMLNGKDPETGEPLDDGNISYQIITFLIAGHETTSGLLSFALYFLVKNPRVLQKVVEEAARVLVDPVPSYKQVKQLKYVGMVLNEALRLWPTFPAFSLYAKEDTVLGGEYPLEKGDEVMVLIPQLHRDKTIWGDDVEEFRPERFENPSAIPQHAFKPFGNGQRACIGQQFALHEATLVLGMMLKHFDFEDHTNYELDIKETLTLKPEGFVVKAKSKKIPLGGIPSPSTGQSAKKVRKKAENAHNTPLLVLYGSNMGTAEGTARDLADIAMSKGFAPQVATLDSHAGNLPREGAVLIVTASYNGHPPDNAKQFVDWLDQASADEVKGVRYSVFGCGDKNWATTYQKVPAFIDETLAAKGAENIADRGEADASDDFEGTYEEWREHMWSDVAAYFNLDIENSEDNKSTLSLQFVDSAADMPLAKMHGAFSTNVVASKELQQPGSARSTRHLEIELPKEASYQEGDHLGVIPRNYEGTVNRVTARFGLDASQQIRLEAEEEKLAHLPLAKTVSVEELLQYVELQDPVTRTQLRAMAAKTVCPPHKVELEALLEKQAYKEQVLAKRLTMLELLEKYPACEMKFSEFIALLPSIRPRYYSISSSPRVDEKQASITVSVVSGEAWSGYGEYKGIASNYLAELQEGDTITCFISTPQSEFTLPKDPETPLIMVGPGTGVAPFRGFVQARKQLKEQGQSLGEAHLYFGCRSPHEDYLYQEELENAQSEGIITLHTAFSRMPNQPKTYVQHVMEQDGKKLIELLDQGAHFYICGDGSQMAPAVEATLMKSYADVHQVSEADARLWLQQLEEKGRYAKDVWAG",,,,,,,,1.7*

# From patent publication US12258605B2, “Alkane oxidation by modified hydroxylases” (The California Institute of Technology, priority 2005, dated 2025)
